Like-named read-outs stand apart in the source and are kept apart here. Bounds are passed on as bounds.

Consider nine substances from patent US20030082156A1 (priority 1999, published 2003).

In assay [1] the target is Tax (peptide residues not given) peptide on HLA-A2 (human).
In assay [2] the target is hen egg conalbumin (CA) peptide on I-Ak (mouse). Nature of the assay: single-chain.
Assay [3] concerns the target dEV8 (peptide name as printed; residues not given) peptide on H-2Kb (mouse).
Assay [4] has the same target. The source holds these as a separate data set.
Assay [5] deals with VSV8/K^b (as in the statement of the monomeric affinity; construct not described) (vesicular stomatitis virus; mouse) (UniProt P01901). Nature of the assay: method not stated; BIAcore implied by the sentence.
Chain of UniProt P01901 (P01901 22-305): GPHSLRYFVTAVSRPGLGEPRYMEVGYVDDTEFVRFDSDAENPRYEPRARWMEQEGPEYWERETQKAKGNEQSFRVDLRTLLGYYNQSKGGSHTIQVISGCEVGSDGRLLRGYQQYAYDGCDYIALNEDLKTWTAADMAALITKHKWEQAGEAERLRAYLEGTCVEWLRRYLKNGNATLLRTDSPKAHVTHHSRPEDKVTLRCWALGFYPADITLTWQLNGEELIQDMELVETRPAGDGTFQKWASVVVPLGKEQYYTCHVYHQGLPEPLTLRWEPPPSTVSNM
For assay [6], the target named is Tax (peptide residues not given) peptide on HLA-A2 (human). The source holds these as a separate data set.
Assay [7] concerns the target VSV8 octapeptide (RGYVYQGL) bound to K^b on presenting cells (vesicular stomatitis virus; mouse) (UniProt P01887). Nature of the assay: cell-based or functional assay.
In assay [8] the test system is N15 TCRs on immature thymocytes. The class given is cell-based, mouse.
Assay [9] relates to DP thymocytes of N15 tg Rag-2−/− H-2b mice. The conditions noted are these: mouse, in vivo.
Another assay has as its target N15 TCR. The class given is binding, mouse. Particulars: read-out: monomeric affinity of the N15 TCR for peptide/K^b.
For assay [10], the target named is CA/I-A^k: hen egg conalbumin peptide (residues 134-146) fused by a flexible linker to the N-terminus of the I-A^k β chain, with the I-A^k α chain; leucine zippers cleaved off by thrombin (hen; mouse) (UniProt P02789). Put plainly: method not stated; cited as refs. 5, 26 ('Our unpublished results').
For assay [11], the target named is vesicular stomatitis virus nuclear protein (VSV8) peptide on H-2Kb (mouse).
For assay [12] the target is unchanged. The source holds these as a separate data set.
The target is the same in assay [13]. Nature of the assay: full-length, on cells.

As to B7 TCR, the orientation angle of the TCR on the pMHC in assay [1] stood at 70 °.
D10 TCR: in [2], the orientation angle of the TCR on the pMHC was found to be 80 °.
In turn, 2C TCR came in with a Kd in assay [3] of 100 µM. In addition, in assay [4], the orientation angle of the TCR on the pMHC worked out at 45 °.
“N15 TCR (as in the statement of its monomeric affinity; construct not described)” showed a Kd in assay [5] of over 200 µM.
Regarding A6 TCR, in [6], the orientation angle of the TCR on the pMHC worked out at 56 °.
On to “N15 TCR (on thymocytes and splenic T cells of N15 TCR transgenic mice)”, for which the DP thymocyte dulling assay: fraction of DP thymocytes dulled in assay [7] was determined as 5%.
For the substance RGYVYQGL [VSV8], in assay [8], the “fraction of DP thymocytes dulled” value is given as about 5% and the “thymocytes falling in the expected CD4/CD8 expression range of DP thymocytes” value is given as 10-26%. Also, the “surviving thymocytes that were DP” value in assay [9] is given as under 10%. In addition, in [9] (iv), the “% of DP thymocytes” value is given as 14%. Besides, the Kd on N15 TCR is over 200 µM.
Turning to “scD10 TCR (single chain V module of the D10 TCR: Vβ8.2-linker-Vα2, 237 residues, Cys235Ser)”, the Kd in assay [10] is 1000 to 2000 nM.
On to N15 TCR, for which the Kd in [11] was over 200 µM. Also, the orientation angle of the TCR on the pMHC in assay [12] came out at 54 °. In assay [13], this substance gave a % CD8 SP thymocytes after 7 days of FTOC of 1% and a % DP thymocytes 24 h after injection of 14%.
